Target: CNOT1 of the CCR4-NOT complex, endogenous
Assay: GFP-trap pull-down, Western blot quantification
Conditions: lentivirally transduced neurons, read off a plot
[1] = NMDA 3 min, 10 min incubation after NMDA washout, parent: est. 1.4
[2] = vehicle (no NMDA) 3 min, 10 min incubation after washout, parent: est. 0.94

Row | Substance | ratio to parent [1] | ratio to parent [2]
1 | GFP-Ago2(WT) (from UniProt Q9UKV8) S387A | 0.81 | 0.75
2 | GFP-Ago2(WT) (from UniProt Q9UKV8) S387D | 1.3 | 1.3

Reference: article PMC10847504
